From the supplement of paper PMC10567573

B1: CD207 (parent)
chain: MTVEKEAPDAHFTVDKQNISLWPR

Variants of: B1
Experiment: protein stability index of a GFP-peptide fusion (GPS, HEK-293T) (PSI 1-6); higher = more stable
Settings: c terminus: a fixed tail appended
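Also: lentivirally expressed fusions sorted by FACS into six bins by GFP to DsRed ratio, PSI derived from sequencing read proportions per bin multiplied by bin number.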

Variant	protein stability index
MTVEKEAPAAHFTVDKQNISLWPR [D9A]	2.79
MTVEKEAPEAHFTVDKQNISLWPR [D9E]	3.15
MTVEKEAPYAHFTVDKQNISLWPR [D9Y]	2.42
MTVEKEAPTAHFTVDKQNISLWPR [D9T]	2.94
MTVEKEAPGAHFTVDKQNISLWPR [D9G]	3.05
MTVEKEAPKAHFTVDKQNISLWPR [D9K]	2.44
MTVEKEAPCAHFTVDKQNISLWPR [D9C]	3.01
MTVEKEAPHAHFTVDKQNISLWPR [D9H]	2.89
MTVEKEAPWAHFTVDKQNISLWPR [D9W]	2.91
MTVEKEAPFAHFTVDKQNISLWPR [D9F]	2.37
MTVEKEAPIAHFTVDKQNISLWPR [D9I]	2.19
MTVEKEAPQAHFTVDKQNISLWPR [D9Q]	3.23
MTVEKEAPNAHFTVDKQNISLWPR [D9N]	3.27
MTVEKEAPMAHFTVDKQNISLWPR [D9M]	2.56
MTVEKEAPRAHFTVDKQNISLWPR [D9R]	3.13
MTVEKEAPSAHFTVDKQNISLWPR [D9S]	3.25
MTVEKEAPLAHFTVDKQNISLWPR [D9L]	2.38
MTVEKEAPPAHFTVDKQNISLWPR [D9P]	2.95
MTVMKEAPDAHFTVDKQNISLWPR [E4M]	3.2
MTVSKEAPDAHFTVDKQNISLWPR [E4S]	3.68
MTVLKEAPDAHFTVDKQNISLWPR [E4L]	2.79
MTVPKEAPDAHFTVDKQNISLWPR [E4P]	3.18
MTVGKEAPDAHFTVDKQNISLWPR [E4G]	3.37
MTVDKEAPDAHFTVDKQNISLWPR [E4D]	3.67

Variant	protein stability index
MTVHKEAPDAHFTVDKQNISLWPR [E4H]	3
MTVQKEAPDAHFTVDKQNISLWPR [E4Q]	3.92
MTVFKEAPDAHFTVDKQNISLWPR [E4F]	2.28
MTVWKEAPDAHFTVDKQNISLWPR [E4W]	1.99
MTVIKEAPDAHFTVDKQNISLWPR [E4I]	2.56
MTVVKEAPDAHFTVDKQNISLWPR [E4V]	3.38
MTVRKEAPDAHFTVDKQNISLWPR [E4R]	3.02
MTVYKEAPDAHFTVDKQNISLWPR [E4Y]	2.43
MTVAKEAPDAHFTVDKQNISLWPR [E4A]	3.17
MTVCKEAPDAHFTVDKQNISLWPR [E4C]	3.11
MTVNKEAPDAHFTVDKQNISLWPR [E4N]	2.86
MTVTKEAPDAHFTVDKQNISLWPR [E4T]	2.77
MTVEKKAPDAHFTVDKQNISLWPR [E6K]	3.47
MTVEKLAPDAHFTVDKQNISLWPR [E6L]	2.72
MTVEKAAPDAHFTVDKQNISLWPR [E6A]	3.21
MTVEKTAPDAHFTVDKQNISLWPR [E6T]	3.08
MTVEKCAPDAHFTVDKQNISLWPR [E6C]	2.32
MTVEKVAPDAHFTVDKQNISLWPR [E6V]	2.05
MTVEKPAPDAHFTVDKQNISLWPR [E6P]	3.14
MTVEKFAPDAHFTVDKQNISLWPR [E6F]	2.27
MTVEKQAPDAHFTVDKQNISLWPR [E6Q]	3.25
MTVEKHAPDAHFTVDKQNISLWPR [E6H]	2.83
MTVEKYAPDAHFTVDKQNISLWPR [E6Y]	2.38
MTVEKGAPDAHFTVDKQNISLWPR [E6G]	3.27

Variant	protein stability index
MTVEKWAPDAHFTVDKQNISLWPR [E6W]	2.29
MTVEKIAPDAHFTVDKQNISLWPR [E6I]	2.37
MTVEKDAPDAHFTVDKQNISLWPR [E6D]	3.31
MTVEKRAPDAHFTVDKQNISLWPR [E6R]	2.74
MTVEKMAPDAHFTVDKQNISLWPR [E6M]	2.52
MTVEKSAPDAHFTVDKQNISLWPR [E6S]	3.01
MTVEKNAPDAHFTVDKQNISLWPR [E6N]	3.23
MTVEKEAPDAHFCVDKQNISLWPR [T13C]	3.2
MTVEKEAPDAHFAVDKQNISLWPR [T13A]	3.53
MTVEKEAPDAHTTVDKQNISLWPR [F12T]	4.09
MTVEKEAPDAHHTVDKQNISLWPR [F12H]	4.02
MTVEKEAPDAHRTVDKQNISLWPR [F12R]	4.04
MTVEKEAPDAHGTVDKQNISLWPR [F12G]	4.03
MTVEKEAPDAHCTVDKQNISLWPR [F12C]	3.72
MTVEKEAPDAHETVDKQNISLWPR [F12E]	4.38
MTVEKEAPDAHNTVDKQNISLWPR [F12N]	3.13
MTVEKEAPDAHPTVDKQNISLWPR [F12P]	4.66
MTVEKEAPDAHATVDKQNISLWPR [F12A]	3.78
MTVEKEAPDAHMTVDKQNISLWPR [F12M]	4.14
MTVEKEAPDAHSTVDKQNISLWPR [F12S]	4.1
MTVEKEAPDAHYTVDKQNISLWPR [F12Y]	3.16
MTVEKEAPDAHLTVDKQNISLWPR [F12L]	3.72
MTVEKEAPDAHDTVDKQNISLWPR [F12D]	4.92
MTVEKEAPDAHKTVDKQNISLWPR [F12K]	4.05

Variant	protein stability index
MTVEKEAPDAHQTVDKQNISLWPR [F12Q]	4.5
MTVEKEAPDAHVTVDKQNISLWPR [F12V]	3.74
MTVEKEAPDAHITVDKQNISLWPR [F12I]	3.96
MTVEKEAPDAHWTVDKQNISLWPR [F12W]	3.35
MTVEKEIPDAHFTVDKQNISLWPR [A7I]	2.67
MTVEKEYPDAHFTVDKQNISLWPR [A7Y]	2.93
MTVEKEFPDAHFTVDKQNISLWPR [A7F]	2.77
MTVEKEEPDAHFTVDKQNISLWPR [A7E]	4.23
MTVEKEWPDAHFTVDKQNISLWPR [A7W]	2.68
MTVEKEPPDAHFTVDKQNISLWPR [A7P]	3.54
MTVEKEVPDAHFTVDKQNISLWPR [A7V]	3.51
MTVEKEQPDAHFTVDKQNISLWPR [A7Q]	3.97
MTVEKESPDAHFTVDKQNISLWPR [A7S]	3.71
MTVEKENPDAHFTVDKQNISLWPR [A7N]	4.01
MTVEKERPDAHFTVDKQNISLWPR [A7R]	2.54
MTVEKECPDAHFTVDKQNISLWPR [A7C]	3.31
MTVEKETPDAHFTVDKQNISLWPR [A7T]	3.31
MTVEKEKPDAHFTVDKQNISLWPR [A7K]	3.11
MTVEKEHPDAHFTVDKQNISLWPR [A7H]	3.32
MTVEKEMPDAHFTVDKQNISLWPR [A7M]	2.61
MTVEKELPDAHFTVDKQNISLWPR [A7L]	2.96
MTVEKEDPDAHFTVDKQNISLWPR [A7D]	3.79
MTVEKEAPDWHFTVDKQNISLWPR [A10W]	2.4
MTVEKEAPDDHFTVDKQNISLWPR [A10D]	3.56

Variant	protein stability index
MTVEKEAPDRHFTVDKQNISLWPR [A10R]	2.48
MTVEKEAPDCHFTVDKQNISLWPR [A10C]	3.77
MTVEKEAPDQHFTVDKQNISLWPR [A10Q]	3.46
MTVEKEAPDGHFTVDKQNISLWPR [A10G]	3.75
MTVEKEAPDFHFTVDKQNISLWPR [A10F]	2.84
MTVEKEAPDNHFTVDKQNISLWPR [A10N]	3.23
MTVEKEAPDSHFTVDKQNISLWPR [A10S]	3.5
MTVEKEAPDKHFTVDKQNISLWPR [A10K]	3.09
MTVEKEAPDTHFTVDKQNISLWPR [A10T]	3.83
MTVEKEAPDVHFTVDKQNISLWPR [A10V]	2.91
MTVEKEAPDLHFTVDKQNISLWPR [A10L]	2.91
MTVEKEAPDIHFTVDKQNISLWPR [A10I]	2.21
MTVEKEAPDEHFTVDKQNISLWPR [A10E]	4.07
MTVEKEAPDYHFTVDKQNISLWPR [A10Y]	3.3
MTVEKEAPDHHFTVDKQNISLWPR [A10H]	3.76
MTVEKEAPDPHFTVDKQNISLWPR [A10P]	3.01
MTVEKEAPDMHFTVDKQNISLWPR [A10M]	2.31
MYVEKEAPDAHFTVDKQNISLWPR [T2Y]	2.18
MTVEKEAPDARFTVDKQNISLWPR [H11R]	2.79
MTVEKEAPDAMFTVDKQNISLWPR [H11M]	2.88
MTVEKEAPDALFTVDKQNISLWPR [H11L]	3
MTVEKEAPDANFTVDKQNISLWPR [H11N]	3.68
MTVEKEAPDAVFTVDKQNISLWPR [H11V]	3.55
MTVEKEAPDAYFTVDKQNISLWPR [H11Y]	2.28

Variant	protein stability index
MTVEKEAPDASFTVDKQNISLWPR [H11S]	3.58
MTVEKEAPDAPFTVDKQNISLWPR [H11P]	3.55
MTVEKEAPDATFTVDKQNISLWPR [H11T]	3.8
MTVEKEAPDAEFTVDKQNISLWPR [H11E]	4.08
MTVEKEAPDAAFTVDKQNISLWPR [H11A]	3.38
MTVEKEAPDAGFTVDKQNISLWPR [H11G]	3.06
MTVEKEAPDAIFTVDKQNISLWPR [H11I]	2.89
MTVEKEAPDAKFTVDKQNISLWPR [H11K]	3.4
MTVEKEAPDADFTVDKQNISLWPR [H11D]	3.58
MTVEKEAPDAWFTVDKQNISLWPR [H11W]	1.97
MTVEKEAPDACFTVDKQNISLWPR [H11C]	3.01
MTVEKEAPDAQFTVDKQNISLWPR [H11Q]	2.95
MTFEKEAPDAHFTVDKQNISLWPR [V3F]	2.85
MTIEKEAPDAHFTVDKQNISLWPR [V3I]	3.33
MTAEKEAPDAHFTVDKQNISLWPR [V3A]	3.47
MTDEKEAPDAHFTVDKQNISLWPR [V3D]	4.12
MTMEKEAPDAHFTVDKQNISLWPR [V3M]	3.09
MTSEKEAPDAHFTVDKQNISLWPR [V3S]	3.55
MTQEKEAPDAHFTVDKQNISLWPR [V3Q]	3.42
MTEEKEAPDAHFTVDKQNISLWPR [V3E]	3.72
MTKEKEAPDAHFTVDKQNISLWPR [V3K]	3.79
MTCEKEAPDAHFTVDKQNISLWPR [V3C]	2.68
MTPEKEAPDAHFTVDKQNISLWPR [V3P]	4.07
MTLEKEAPDAHFTVDKQNISLWPR [V3L]	3.44

Variant	protein stability index
MTNEKEAPDAHFTVDKQNISLWPR [V3N]	3.93
MTGEKEAPDAHFTVDKQNISLWPR [V3G]	3.19
MTTEKEAPDAHFTVDKQNISLWPR [V3T]	3.57
MTYEKEAPDAHFTVDKQNISLWPR [V3Y]	2.75
MTWEKEAPDAHFTVDKQNISLWPR [V3W]	2.86
MTREKEAPDAHFTVDKQNISLWPR [V3R]	3.9
MTHEKEAPDAHFTVDKQNISLWPR [V3H]	3.54
MTVEEEAPDAHFTVDKQNISLWPR [K5E]	4.03
MTVEFEAPDAHFTVDKQNISLWPR [K5F]	2.02
MTVEHEAPDAHFTVDKQNISLWPR [K5H]	3.27
MTVEDEAPDAHFTVDKQNISLWPR [K5D]	3.48
MTVEVEAPDAHFTVDKQNISLWPR [K5V]	1.53
MTVEIEAPDAHFTVDKQNISLWPR [K5I]	1.95
MTVEYEAPDAHFTVDKQNISLWPR [K5Y]	1.99
MTVETEAPDAHFTVDKQNISLWPR [K5T]	2.89
MTVECEAPDAHFTVDKQNISLWPR [K5C]	2.58
MTVESEAPDAHFTVDKQNISLWPR [K5S]	3.04
MTVEMEAPDAHFTVDKQNISLWPR [K5M]	2.04
MTVEPEAPDAHFTVDKQNISLWPR [K5P]	3.48
MTVEWEAPDAHFTVDKQNISLWPR [K5W]	2.04
MTVEGEAPDAHFTVDKQNISLWPR [K5G]	3.79
MTVENEAPDAHFTVDKQNISLWPR [K5N]	3.13
MTVELEAPDAHFTVDKQNISLWPR [K5L]	1.86
MTVEAEAPDAHFTVDKQNISLWPR [K5A]	2.96

Variant	protein stability index
MTVEREAPDAHFTVDKQNISLWPR [K5R]	2.94
MTVEKEAQDAHFTVDKQNISLWPR [P8Q]	3.24
MTVEKEAFDAHFTVDKQNISLWPR [P8F]	1.98
MTVEKEATDAHFTVDKQNISLWPR [P8T]	3.17
MTVEKEALDAHFTVDKQNISLWPR [P8L]	2.65
MTVEKEAIDAHFTVDKQNISLWPR [P8I]	3.22
MTVEKEAADAHFTVDKQNISLWPR [P8A]	3.52
MTVEKEAEDAHFTVDKQNISLWPR [P8E]	4.39
MTVEKEAKDAHFTVDKQNISLWPR [P8K]	3.54
MTVEKEAMDAHFTVDKQNISLWPR [P8M]	3.17
MTVEKEAGDAHFTVDKQNISLWPR [P8G]	3.02
MTVEKEAYDAHFTVDKQNISLWPR [P8Y]	2.6
MTVEKEACDAHFTVDKQNISLWPR [P8C]	2.96
MTVEKEASDAHFTVDKQNISLWPR [P8S]	3.65
MTVEKEAHDAHFTVDKQNISLWPR [P8H]	4.79
MTVEKEAWDAHFTVDKQNISLWPR [P8W]	1.93
MTVEKEADDAHFTVDKQNISLWPR [P8D]	3.67
MTVEKEARDAHFTVDKQNISLWPR [P8R]	3.71
MTVEKEAVDAHFTVDKQNISLWPR [P8V]	2.86
MTVEKEANDAHFTVDKQNISLWPR [P8N]	3.48
